Measured values: patent US5965443

Key:
[1] = molecular target: T1, Tn5 transposase EK54/MA56/LP372 (modified, hyperactive) (Escherichia coli (transposon Tn5)?) (UniProt Q46731); conditions: in vitro transposition; 0.1 M K glutamate, 25 mM Tris acetate pH 7.5, 10 mM Mg acetate, 20 C 60 min then 37 C 2-3 h; underestimates total events; scale: % of plasmid-receiving cells
T1 sequence: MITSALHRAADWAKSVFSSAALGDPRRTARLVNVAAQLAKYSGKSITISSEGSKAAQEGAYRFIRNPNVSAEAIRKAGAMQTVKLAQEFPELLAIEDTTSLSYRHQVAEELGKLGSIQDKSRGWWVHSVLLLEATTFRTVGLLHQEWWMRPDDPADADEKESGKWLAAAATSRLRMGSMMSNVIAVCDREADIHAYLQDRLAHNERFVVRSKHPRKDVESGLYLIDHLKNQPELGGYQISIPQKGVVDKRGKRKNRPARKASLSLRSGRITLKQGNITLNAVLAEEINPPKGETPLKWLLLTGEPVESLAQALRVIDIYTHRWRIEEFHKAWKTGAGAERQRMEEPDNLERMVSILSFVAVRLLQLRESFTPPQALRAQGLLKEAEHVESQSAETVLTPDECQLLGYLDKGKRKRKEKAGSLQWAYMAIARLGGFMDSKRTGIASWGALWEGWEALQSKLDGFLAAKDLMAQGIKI

[2] = molecular target: Tn5 transposase LP372 K54E (Escherichia coli (transposon Tn5)?) (UniProt Q46731); assay: cell_activity; conditions: mutant at position 372 alone; MA56 background inferred
[3] = molecular target: Tn5 transposase EK54 (with MA56, pRZ5412-EK54) P372L (Escherichia coli (transposon Tn5)?) (UniProt Q46731); assay: cell_activity; conditions: mutant at position 54 alone; MA56 background inferred
[4] = molecular target: Tn5 transposase EK54/MA56/LP372 (in-cell assay) (Escherichia coli (transposon Tn5)?) (UniProt Q46731); assay: cell_activity; conditions: at least about 100-fold transposase activity; assay substrate not detailed for this test

Substance | activity [1] | transposase activity (fold activity vs wild type) [2] | transposase activity (fold activity vs wild type) [3] | transposase activity (fold activity vs wild type) [4]
pRZTL1 circular plasmid (two inverted Tn5 19 bp OE termini) | 0.1 | – | – | –
lacZ-containing Tn5 transposable element in E. coli MDW320 | – | 10 | 10 | > 100
